Test results reported in patent publication US20260265379A1 (IMCHECK THERAPEUTICS, published 2026).

What was measured:
[1] = target: T1, PD-1 at the surface of Jurkat-PD-1 cells (human, UniProt Q15116 25-288); assay: flow cytometry, Jurkat-PD-1 cells
T1 construct: whole, on cells

[2] = target: T2, BTN3A1 at the surface of HEK-BTN3A1 cells (human, UniProt O00481 30-513); assay: flow cytometry, HEK-BTN3A1 cells
T2 construct: HEK 293T BTN2A/BTN3A KO cells transduced with a BTN3A1 expressing vector
T2 sequence (O00481 30-513 limits assumed): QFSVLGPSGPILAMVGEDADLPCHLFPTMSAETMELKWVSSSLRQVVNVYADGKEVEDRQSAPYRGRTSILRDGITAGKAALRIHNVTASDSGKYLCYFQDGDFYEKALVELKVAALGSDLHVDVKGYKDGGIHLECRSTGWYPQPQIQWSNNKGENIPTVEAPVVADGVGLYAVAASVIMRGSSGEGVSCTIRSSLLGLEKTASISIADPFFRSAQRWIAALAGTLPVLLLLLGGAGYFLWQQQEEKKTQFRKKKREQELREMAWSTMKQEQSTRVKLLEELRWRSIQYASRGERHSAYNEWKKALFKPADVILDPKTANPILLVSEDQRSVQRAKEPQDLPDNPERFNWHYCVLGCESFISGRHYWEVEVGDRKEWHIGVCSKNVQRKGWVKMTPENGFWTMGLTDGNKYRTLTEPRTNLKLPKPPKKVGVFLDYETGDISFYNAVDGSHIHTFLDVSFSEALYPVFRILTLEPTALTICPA

recombinant human PD-1 = target: T3, recombinant human PD-1 (human, UniProt Q15116 25-167, limits assumed); assay: SPR
T3 construct: Soluble antigen in SPR; also called rhPD-1
T3 sequence (Q15116 25-167 limits assumed): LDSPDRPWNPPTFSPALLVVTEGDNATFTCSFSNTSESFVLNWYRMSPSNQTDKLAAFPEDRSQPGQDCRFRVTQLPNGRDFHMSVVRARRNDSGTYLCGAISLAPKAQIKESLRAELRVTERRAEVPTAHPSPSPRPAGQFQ
Method: (§1) SPR measures the interactions between two or more biomolecules. In capture kinetics analysis, an antibody is immobilized onto a gold-plated prism. The immobilized antibody is referred to as the ligand. An injection of antigen, referred to as the analyte, is carried out, often as a concentration series. The captured analytes are removed from the sensor chip surface using a regenerating agent, for example a low pH or high ionic strength solution. If investigating binding to several analytes, the antibodies are recaptured from solution before each analyte titration series. The instrument records the changes in refractive indexes (due to the accumulation or depletion of mass) in time and plots the results as sensorgrams.
(§2) Affinity measurements with respect to BTN3A, PD-1 and PD-L1 were performed by SPR technology, for instance in a Carterra LSA Platform instrument using a soluble form of the antigen as the analyte and the antibody as the ligand. Binding was also assessed through in cellulo binding assays, on cell lines (e.g. HEK293T cells) genetically modified to express the targets of interest or genetically modified to extinct target expression.
(§3) The 69 produced bsAbs and control mAbs were also evaluated for their binding affinity to recombinant proteins by SPR assays. The equilibrium dissociation constant (KD) was then calculated for constructs showing detectable binding.

recombinant human BTN3A1 = target: T4, recombinant human BTN3A1 (human, UniProt O00481 30-254); assay: SPR
T4 construct: Soluble form of the antigen used in SPR; also called rhBTN3A1; recombinant BTN3A1 protein
T4 sequence (O00481 30-254 limits assumed): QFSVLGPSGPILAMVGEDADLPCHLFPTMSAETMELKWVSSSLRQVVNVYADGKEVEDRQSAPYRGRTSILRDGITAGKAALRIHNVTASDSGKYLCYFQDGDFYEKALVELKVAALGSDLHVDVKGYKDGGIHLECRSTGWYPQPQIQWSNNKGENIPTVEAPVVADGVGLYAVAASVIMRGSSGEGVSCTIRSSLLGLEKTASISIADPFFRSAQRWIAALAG
Method: as §1, §2, §3

[3] = target: T5, PD-L1 at the surface of transduced cells (UniProt Q9NZQ7 19-290, limits assumed); assay: flow cytometry, CHO-PD-L1 cells
T5 construct: whole, on cells; CHO-PD-L1 cells in flow cytometry, Raji-PD-L1 cells in the reporter assay; also called CHO-PD-L1; Raji-PD-L1
T5 sequence (Q9NZQ7 19-290 limits assumed): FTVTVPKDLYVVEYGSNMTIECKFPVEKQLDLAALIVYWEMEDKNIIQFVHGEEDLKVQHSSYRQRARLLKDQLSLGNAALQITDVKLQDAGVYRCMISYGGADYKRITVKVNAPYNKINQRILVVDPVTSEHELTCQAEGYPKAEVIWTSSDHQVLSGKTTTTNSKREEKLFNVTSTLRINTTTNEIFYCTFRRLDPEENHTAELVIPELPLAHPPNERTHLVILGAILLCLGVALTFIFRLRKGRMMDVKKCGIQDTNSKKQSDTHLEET

[4] = target: T5, PD-L1 at the surface of transduced cells; assay: cell-based or functional assay

T1 sequence (Q15116 25-288): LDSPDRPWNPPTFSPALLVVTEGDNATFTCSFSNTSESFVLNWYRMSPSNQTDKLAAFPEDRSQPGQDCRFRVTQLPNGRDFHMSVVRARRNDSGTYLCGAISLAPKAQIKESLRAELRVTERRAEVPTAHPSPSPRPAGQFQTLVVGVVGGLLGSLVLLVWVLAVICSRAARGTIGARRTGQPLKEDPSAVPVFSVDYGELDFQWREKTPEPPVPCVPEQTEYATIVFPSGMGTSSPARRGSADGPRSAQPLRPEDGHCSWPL

| Binder | MFI at 10 nM [1] [MFI] | MFI at 100 nM [1] [MFI] | MFI at 10 nM [2] [MFI] | MFI at 100 nM [2] [MFI] | Kd (recombinant human PD-1) [pM] | Kd (recombinant human BTN3A1) [pM] | MFI at 10 nM [3] [MFI] | MFI at 100 nM [3] [MFI] | Jurkat-PD-1 activation at 10 nM [4] | Jurkat-PD-1 activation at 100 nM [4] |
| --- | --- | --- | --- | --- | --- | --- | --- | --- | --- | --- |
| bsAb037 (bispecific antibody, one Fab arm anti-PD-1, two scFv anti-BTN3A; not shown: IgG1 CH1-hinge-CH2-CH3; CH2-CH3 (Fc)) heavy 1: QVQLVQSGVEVKKPGASVKVSCKASGYTFTNYYMYWVRQAPGQGLEWMGGINPSNGGTNFNEKFKNRVTLTTDSSTTTAYMELKSLQFDDTAVYYCARRDYRFDMGFDYWGQGTTVTVSS heavy 2: DIQMTQSPSSLSASVGDRVTITCHASQNINVWLSWYQQKPGKAPKLLIYKASNLHTGVPSRFTGSGSGTDFTFTISSLQPEDIATYYCQQGQTYPYTFGQGTKLEIKGGGGSGGGGSGGGGSGGGGSQVQLVQSGAEVKKPGASVKLSCKASGYIFTRYYMYWVKQRPGQGLEWIGEINPNNGGTKFNEKFKNRATLTVDKSISTAYMELSRLRSDDTAVYYCSREDDYDGTPFAMDYWGQGTLVTVSSGGGGSGGGGSGGGGSGGGGS light: EIVLTQSPATLSLSPGERATLSCRASKGVSTSGYSYLHWYQQKPGQAPRLLIYLASYLESGVPARFSGSGSGTDFTLTISSLEPEDFAVYYCQHSRDLPLTFGGGTKVEIKRTVAAPSVFIFPPSDEQLKSGTASVVCLLNNFYPREAKVQWKVDNALQSGNSQESVTEQDSKDSTYSLSSTLTLSKADYEKHKVYACEVTHQGLSSPVTKSFNRGECGGGGSGGGGSGGGGSGGGGSQVQLVQSGAEVKKPGASVKLSCKASGYIFTRYYMYWVKQRPGQGLEWIGEINPNNGGTKFNEKFKNRATLTVDKSISTAYMELSRLRSDDTAVYYCSREDDYDGTPFAMDYWGQGTLVTVSSGGGGSGGGGSGGGGSGGGGSDIQMTQSPSSLSASVGDRVTITCHASQNINVWLSWYQQKPGKAPKLLIYKASNLHTGVPSRFTGSGSGTDFTFTISSLQPEDIATYYCQQGQTYPYTFGQGTKLEIK | 238000 | 270000 | 585000 | 1.25e+06 | 1100 | 86 | – | – | – | – |
| bsAb021 (bispecific antibody, IgG anti-PD-1, scFv anti-BTN3A) heavy: QVQLVQSGAEVKKPGASVKLSCKASGYIFTRYYMYWVKQRPGQGLEWIGEINPNNGGTKFNEKFKNRATLTVDKSISTAYMELSRLRSDDTAVYYCSREDDYDGTPFAMDYWGQGTLVTVSSGGGGSGGGGSGGGGSGGGGSDIQMTQSPSSLSASVGDRVTITCHASQNINVWLSWYQQKPGKAPKLLIYKASNLHTGVPSRFTGSGSGTDFTFTISSLQPEDIATYYCQQGQTYPYTFGQGTKLEIKGGGGSGGGGSGGGGSGGGGSQVQLVQSGVEVKKPGASVKVSCKASGYTFTNYYMYWVRQAPGQGLEWMGGINPSNGGTNFNEKFKNRVTLTTDSSTTTAYMELKSLQFDDTAVYYCARRDYRFDMGFDYWGQGTTVTVSSASTKGPSVFPLAPSSKSTSGGTAALGCLVKDYFPEPVTVSWNSGALTSGVHTFPAVLQSSGLYSLSSVVTVPSSSLGTQTYICNVNHKPSNTKVDKRVEPKSCDKTHTCPPCPAPEFEGGPSVFLFPPKPKDTLMISRTPEVTCVVVDVSHEDPEVKFNWYVDGVEVHNAKTKPREEQYNSTYRVVSVLTVLHQDWLNGKEYKCKVSNKALPASIEKTISKAKGQPREPQVYTLPPSREEMTKNQVSLTCLVKGFYPSDIAVEWESNGQPENNYKTTPPVLDSDGSFFLYSKLTVDKSRWQQGNVFSCSVMHEALHNHYTQKSLSLSPG light: EIVLTQSPATLSLSPGERATLSCRASKGVSTSGYSYLHWYQQKPGQAPRLLIYLASYLESGVPARFSGSGSGTDFTLTISSLEPEDFAVYYCQHSRDLPLTFGGGTKVEIKRTVAAPSVFIFPPSDEQLKSGTASVVCLLNNFYPREAKVQWKVDNALQSGNSQESVTEQDSKDSTYSLSSTLTLSKADYEKHKVYACEVTHQGLSSPVTKSFNRGEC | 186000 | 275000 | 816000 | 944000 | 1500 | 68 | – | – | – | – |
| bsAb034 (bispecific antibody, one Fab arm anti-PD-1, two scFv anti-BTN3A; not shown: IgG1 CH1-hinge-CH2-CH3; CH2-CH3 (Fc)) heavy (part 1 of 2): QVQLVQSGVEVKKPGASVKVSCKASGYTFTNYYMYWVRQAPGQGLEWMGGINPSNGGTNFNEKFKNRVTLTTDSSTTTAYMELKSLQFDDTAVYYCARRDYRFDMGFDYWGQGTTVTVSS heavy (part 2 of 2): GGGGSGGGGSGGGGSGGGGSQVQLVQSGAEVKKPGASVKLSCKASGYIFTRYYMYWVKQRPGQGLEWIGEINPNNGGTKFNEKFKNRATLTVDKSISTAYMELSRLRSDDTAVYYCSREDDYDGTPFAMDYWGQGTLVTVSSGGGGSGGGGSGGGGSGGGGSDIQMTQSPSSLSASVGDRVTITCHASQNINVWLSWYQQKPGKAPKLLIYKASNLHTGVPSRFTGSGSGTDFTFTISSLQPEDIATYYCQQGQTYPYTFGQGTKLEIK heavy: GGGGSGGGGSGGGGSGGGGSQVQLVQSGAEVKKPGASVKLSCKASGYIFTRYYMYWVKQRPGQGLEWIGEINPNNGGTKFNEKFKNRATLTVDKSISTAYMELSRLRSDDTAVYYCSREDDYDGTPFAMDYWGQGTLVTVSSGGGGSGGGGSGGGGSGGGGSDIQMTQSPSSLSASVGDRVTITCHASQNINVWLSWYQQKPGKAPKLLIYKASNLHTGVPSRFTGSGSGTDFTFTISSLQPEDIATYYCQQGQTYPYTFGQGTKLEIK light: EIVLTQSPATLSLSPGERATLSCRASKGVSTSGYSYLHWYQQKPGQAPRLLIYLASYLESGVPARFSGSGSGTDFTLTISSLEPEDFAVYYCQHSRDLPLTFGGGTKVEIKRTVAAPSVFIFPPSDEQLKSGTASVVCLLNNFYPREAKVQWKVDNALQSGNSQESVTEQDSKDSTYSLSSTLTLSKADYEKHKVYACEVTHQGLSSPVTKSFNRGEC | 210000 | 381000 | 706000 | 1.24e+06 | 1900 | 167 | – | – | – | – |

Second part, the binder after the results:

| MFI at 10 nM [1] [MFI] | MFI at 100 nM [1] [MFI] | MFI at 10 nM [2] [MFI] | MFI at 100 nM [2] [MFI] | Kd (recombinant human PD-1) [pM] | Kd (recombinant human BTN3A1) [pM] | MFI at 10 nM [3] [MFI] | MFI at 100 nM [3] [MFI] | Jurkat-PD-1 activation at 10 nM [4] | Jurkat-PD-1 activation at 100 nM [4] | Binder |
| --- | --- | --- | --- | --- | --- | --- | --- | --- | --- | --- |
| – | – | 592000 | 1.02e+06 | – | 80 | 1.18e+06 | 1.36e+06 | 7.4 fold-change to medium | 8.9 fold-change to medium | bsAb048 (bispecific antibody, IgG anti-BTN3A, one scFv anti-PD-L1; not shown: IgG1 CH1-hinge-CH2-CH3) heavy 1: EIVLTQSPGTLSLSPGERATLSCRASQRVSSSYLAWYQQKPGQAPRLLIYDASSRATGIPDRFSGSGSGTDFTLTISRLEPEDFAVYYCQQYGSLPWTFGQGTKVEIKGGGGSGGGGSGGGGSGGGGSEVQLVESGGGLVQPGGSLRLSCAASGFTFSRYWMSWVRQAPGKGLEWVANIKQDGSEKYYVDSVKGRFTISRDNAKNSLYLQMNSLRAEDTAVYYCAREGGWFGELAFDYWGQGTLVTVSSGGGGSGGGGSGGGGSGGGGSQVQLVQSGAEVKKPGASVKLSCKASGYIFTRYYMYWVKQRPGQGLEWIGEINPNNGGTKFNEKFKNRATLTVDKSISTAYMELSRLRSDDTAVYYCSREDDYDGTPFAMDYWGQGTLVTVSS heavy 2: QVQLVQSGAEVKKPGASVKLSCKASGYIFTRYYMYWVKQRPGQGLEWIGEINPNNGGTKFNEKFKNRATLTVDKSISTAYMELSRLRSDDTAVYYCSREDDYDGTPFAMDYWGQGTLVTVSS light: not shown |
| – | – | 535000 | 1.2e+06 | – | 80 | 1.18e+06 | 1.32e+06 | 6.9 fold-change to medium | 7.8 fold-change to medium | bsAb050 (bispecific antibody, IgG anti-BTN3A, one scFv anti-PD-L1; not shown: IgG1 CH1-hinge-CH2-CH3) heavy 1: EVQLVESGGGLVQPGGSLRLSCAASGFTFSRYWMSWVRQAPGKGLEWVANIKQDGSEKYYVDSVKGRFTISRDNAKNSLYLQMNSLRAEDTAVYYCAREGGWFGELAFDYWGQGTLVTVSSGGGGSGGGGSGGGGSGGGGSEIVLTQSPGTLSLSPGERATLSCRASQRVSSSYLAWYQQKPGQAPRLLIYDASSRATGIPDRFSGSGSGTDFTLTISRLEPEDFAVYYCQQYGSLPWTFGQGTKVEIKGGGGSGGGGSGGGGSGGGGSQVQLVQSGAEVKKPGASVKLSCKASGYIFTRYYMYWVKQRPGQGLEWIGEINPNNGGTKFNEKFKNRATLTVDKSISTAYMELSRLRSDDTAVYYCSREDDYDGTPFAMDYWGQGTLVTVSS heavy 2: QVQLVQSGAEVKKPGASVKLSCKASGYIFTRYYMYWVKQRPGQGLEWIGEINPNNGGTKFNEKFKNRATLTVDKSISTAYMELSRLRSDDTAVYYCSREDDYDGTPFAMDYWGQGTLVTVSS light: not shown |
| 294000 | 283000 | 1.14e+06 | 1.81e+06 | 2100 | 187 | – | – | – | – | bsAb039 (bispecific antibody, one Fab arm anti-PD-1, two scFv anti-BTN3A; not shown: IgG1 CH1-hinge-CH2-CH3; CH2-CH3 (Fc)) heavy (part 1 of 2): QVQLVQSGVEVKKPGASVKVSCKASGYTFTNYYMYWVRQAPGQGLEWMGGINPSNGGTNFNEKFKNRVTLTTDSSTTTAYMELKSLQFDDTAVYYCARRDYRFDMGFDYWGQGTTVTVSS heavy (part 2 of 2): GGGGSGGGGSGGGGSGGGGSDIQMTQSPSSLSASVGDRVTITCHASQNINVWLSWYQQKPGKAPKLLIYKASNLHTGVPSRFTGSGSGTDFTFTISSLQPEDIATYYCQQGQTYPYTFGQGTKLEIKGGGGSGGGGSGGGGSGGGGSQVQLVQSGAEVKKPGASVKLSCKASGYIFTRYYMYWVKQRPGQGLEWIGEINPNNGGTKFNEKFKNRATLTVDKSISTAYMELSRLRSDDTAVYYCSREDDYDGTPFAMDYWGQGTLVTVSS heavy: GGGGSGGGGSGGGGSGGGGSDIQMTQSPSSLSASVGDRVTITCHASQNINVWLSWYQQKPGKAPKLLIYKASNLHTGVPSRFTGSGSGTDFTFTISSLQPEDIATYYCQQGQTYPYTFGQGTKLEIKGGGGSGGGGSGGGGSGGGGSQVQLVQSGAEVKKPGASVKLSCKASGYIFTRYYMYWVKQRPGQGLEWIGEINPNNGGTKFNEKFKNRATLTVDKSISTAYMELSRLRSDDTAVYYCSREDDYDGTPFAMDYWGQGTLVTVSS light: EIVLTQSPATLSLSPGERATLSCRASKGVSTSGYSYLHWYQQKPGQAPRLLIYLASYLESGVPARFSGSGSGTDFTLTISSLEPEDFAVYYCQHSRDLPLTFGGGTKVEIKRTVAAPSVFIFPPSDEQLKSGTASVVCLLNNFYPREAKVQWKVDNALQSGNSQESVTEQDSKDSTYSLSSTLTLSKADYEKHKVYACEVTHQGLSSPVTKSFNRGEC |
